Experimental findings from the nanobody polyreactivity screen of Harvey et al. (2022) are described below.

A short description of the series: yeast display, Sf9 membrane polyspecificity reagent, FACS + sequencing; frameworks hold sequencing errors. Summed up:
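Genes from sorted yeast were amplified by colony PCR, read by MiSeq 2 × 250 sequencing and filtered on CDR length. These cells carried a synthetic nanobody library in Saccharomyces cerevisiae BJ5465 and were sorted by FACS into low and high (top ~1%) gates on anti-HA and streptavidin fluorescence. Polyreactivity is labelled according to the gate of origin.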
In the case of “QVQLVESRGGLDQAGGSLRLSCAASGSIFGFYAMGWYRQAPGKERELVAAISSDGGSTYYADSVKGRFTISRDNAKNTVYLQMNSLKPEDTAVYYCAAAHGSIFDSTYYEYYYWGQGTQVTVSS”, the “polyreactivity (PSR sort gate)” value is “low polyreactivity”.

As to “QVQLVESRGGLVHAGGSLGLSCAASGSTFGVNAMGWYRQAPGKERELVASISSGGGTYYADSVKGRFTISRDNSKNTVYLQMNSLKPEDTAVYYCAAVYYWYDSYAGYDYWGQGTQVTVSS”, the “polyreactivity (PSR sort gate)” value was “low polyreactivity”. With “QVQLVESRGGLVQAGCSLRLSSAASGLIFYFYTMGWYRQAPGKERELVDSIRSGDSTNYADSVKGRFTISRDNAKNTVYLQMNSLKPEDTAVYYCNARYRYPYYLSVAEKYDYWGQGTQVTVSS”, the “polyreactivity (PSR sort gate)” value is listed as “high polyreactivity”.

As to “QVQLVESRGGLVQAGGRLRLSCAASGLIFYKYAMGWYRPAHGKERQLVAAITSGGGSTYYADSVKGRFTISRDNAKNTVYLQKNSLKPEDSAVYYCAATRPATYAAYDYWGHGTQVTVSS”, the “polyreactivity (PSR sort gate)” value is reported as “high polyreactivity”.

Take “QVQLVESRGGLVQAGGSLLLSCAASGIIFRYYTMGWYRQAPGKERELVAAIERSGGNTYYADSVKGRFTISRDNAKNTVYLQMNSLKPEDTAVYYCAARYATWYFRRGRKTSDYDYWGQGTQVTVSS”: the “polyreactivity (PSR sort gate)” value was “high polyreactivity”. Consider “QVQLVESRGGLVQAGGSLRLRCAASGYIYYQYAMGWSRHAPGKETALVGAISLSGGMTYYADSVKGRFTISRDNAKNTVYLQMNSLKPEETGVYFCNAQSRVWCKVYYWGQGTQVTVSS”, for which the “polyreactivity (PSR sort gate)” value is “high polyreactivity”. The same measure for “QVQLVESRGGLVQAGGSLRLSCAASAFTFDYYVMGWYIQAPGKERELVAAISLRSGRTYYADSVKGRFTISRDNAKNTVYLQMNSLKPEDTAVYYCAAESRGVGAYYYWGQGTQLTVSS”: “high polyreactivity”; for “QVQLVESRGGLVQAGGSLRLSCAASGFTFRAYAMGWYREAPGKERELVAAISTGGGSTYYADSVKGRFTISRDNAKITVYFQMNSLKPEDTAVYYCNALPQRRYYYWGQGTHVTVSS”: “high polyreactivity”.

“QVQLVESRGGLVQAGGSLRLSCAASGFTFSAYAMGWYRQAPGKERELVAAISWSGSRTYYADSVKGRFTISRDNAKNTVYLQMNSQKPEDTAVYYCAKEPYDTFGFYDYDYWGQGTQVTVSS”: the “polyreactivity (PSR sort gate)” value is given as “low polyreactivity”. The same measure for “QVQLVESRGGLVQAGGSLRLSCAASGFTFYKYAMGCYRQAPGKERELVAAITGSGGSTYYADSVKGRFTISRDNAKNTVYLQMNSLKPEDTAVYYCATRYPTYYGYHKFDYWGQGTQVTVSS”: “high polyreactivity”; for “QVQLVESRGGLVQAGGSLRLSCAASGFTFYYYAMGWYRQAPGKERELVAAISGRGGSTYYADSVKGRFTISRDNAKNSVYLQMNSLKPEDTAVYYCAAVPIVRLEYWGQGTQVTVSS”: “high polyreactivity”; for “QVQLVESRGGLVQAGGSLRLSCAASGIIFQSYTMGWYRQAPGKERELVAAISTSGSTYYADSVKGRFTISRDNAKNTVYLQMNSLKPEDTAVYYCATYRYRIWWWGEYDYWGQGTQVTVSS”: “high polyreactivity”. In the case of “QVQLVESRGGLVQAGGSLRLSCAASGNTFYGYAMGWYRPAPGKERELVASITLSGDSTYYADSVKGRFTISRDNAKNTVYLQMNSLKPEDTAVYYCAGVYTYPLGYYHYTYDYWGQGTQVTVSS”, the “polyreactivity (PSR sort gate)” value is “low polyreactivity”.

Turning to “QVQLVESRGGLVQAGGSLRLSCAASGPTFRNTAMGWSRQAPGKDREFVAVISNTGGSTYYADSVKGRFTISRDNAKNTVYLQMNSLKAEDTAVYYCGVRPRYSQYYYWGQGTQVTVSS”, the “polyreactivity (PSR sort gate)” value was “high polyreactivity”. The same measure for “QVQLVESRGGLVQAGGSLRLSCAASGRIFGLYAMGWYRQAPGKERELVAAYADSVKGRFTISRDNAKNTVYLKMNCLKPEDTAVYYCAKGPLYAGYSIDLRDFNYWGQGTQVNVSS”: “low polyreactivity”; for “QVQLVESRGGLVQAGGSLRLSCAASGRIFGTNAMGWYRQAPGRERELVATITRGGGNTYYADSVKGRFTISRDIAKNTVYLQMNSLKPEDTAVYYCAAKFHRFAWYSHYDYWGHGTQVTVSS”: “low polyreactivity”; for “QVQLVESRGGLVQAGGSLRLSCAASGRIFHYYVMGWYRQAPGKERELVARITFNGGGTYYADSVKGRFTISRDIAKNTVYLQMNRLKPEDTAVYYCNARYPWRDWEDDYWGQGTQVTVSS”: “low polyreactivity”. As for “QVQLVESRGGLVQAGGSLRLSCAASGRIILIYAMGWYRQAPGKERELVGDISKGGSSTYYADSVKGRVTISRDNAQNTVYLQMNSLKPEDTAVYYCAASGRWTGRQAAYDYWGQGTQVTVSS”, the “polyreactivity (PSR sort gate)” value is “high polyreactivity”. For “QVQLVESRGGLVQAGGSLRLSCAASGRIIPSYMGWYRQAPGKQRELVARISNTGSTYYADSVKGRFTISRDNAKNTVYLQMNRLKPEDTAVYYCAAVYIFRVFSHPPYDYWGQGTQVTVST” the value was “low polyreactivity”.

On to “QVQLVESRGGLVQAGGSLRLSCAASGRIYSVYDMGWYRQAPGKESEFVAAIRSSGDSTYYADSVKGRFTISRDNAKNTVYLQMNSLKPDDTAVYYCAADVYRYRVRGLNYWGQGTQVTVSS”, for which the “polyreactivity (PSR sort gate)” value is on record as “high polyreactivity”. For “QVQLVESRGGLVQAGGSLRLSCAASGRLFYSYAMGWNRQEPGKEREFVAAISRSGARTYYADSVKGRFTISRDNAKNTVYLQMNSLKPEDTAVYYCAADDFSTVEYDYWGQGTQVTVSS”, the “polyreactivity (PSR sort gate)” value is on record as “low polyreactivity”. For “QVQLVESRGGLVQAGGSLRLSCAASGRTFLGYAMGWYRQAPGKERELVAAISYSGSSTYYADSVKGRFTISRDNAKNTVYLQMNSLKPEDTAVYYCAAQFYFLFDYWGQGTQVTVSS” the value was “low polyreactivity”; for “QVQLVESRGGLVQAGGSLRLSCAASGSICYRYAMGWYRQAPGKERELVAAISYSGGSTYYADSVKGRFTISRDNAKNTVYLQMKSLKPEDTAVYYCAKDYPPPISDYSRYYGYGYWGQGTQVTVSS”, “low polyreactivity”. Regarding “QVQLVESRGGLVQAGGSLRLSCAASGSIFPYNAMGWYRQAPGKEREFVAAINLSGGSTNYADSVKGRFTISRDNAKNTVYLQMNSLKPEDTAVYYCNAPVDYFWPLNFDYWGQGTQVTVSS”, the “polyreactivity (PSR sort gate)” value is “low polyreactivity”. For “QVQLVESRGGLVQAGGSLRLSCAASGSIFYRYAMGWYRPAPWKERELVAAIRRGGSTNYADSVKGRFTISRDNAKNTVYLQMNSLKPEDTAVYYCAAGRFTYAAQRYEYWGQGTQVTVSS”, the “polyreactivity (PSR sort gate)” value is listed as “high polyreactivity”. With “QVQLVESRGGLVQAGGSLRLSCAASGSTCFTNDMGWYRQAPGTERELVASISPSTGSTYYADSVKGRVTISRDNAKNTVSLQMNSLKPDDTAVYYCAADEWYYSYNDGNLYDYWGQGTQVTVSS”, the “polyreactivity (PSR sort gate)” value is on record as “low polyreactivity”. The same measure for “QVQLVESRGGLVQAGGSLRLSCAASGSTFFRYAMGWYRQAPGKERELVAAITDSDGSTYYADSVKGRFTISRDNAKNTVYLQMNSLKPEDTAVYYCAAAHPDGWTVYNPQGGAWYDYWGQGSQVTVSS”: “low polyreactivity”; for “QVQLVESRGGLVQAGGSLRLSCAASGSTFKPNAMGWYRPAPGKERELVAAITSGSTYYADSVKGRFTISRDNAKNTVYLQMNSLKPEDTAVYYCATSFRGKSPYRNSGSYYYWGQGTQVTVSS”: “high polyreactivity”. The same measure for “QVQLVESRGGLVQAGGSLRLSCAASGSTFRTYAMGWYRQAPGKERELVADITWRGGSTYYADSVKGRFTISRDNAKNTVYLQMNSLKPEDTAVYYCATDRGPEVVLYDYWGQGTQVTVSS”: “low polyreactivity”. As to “QVQLVESRGGLVQAGGSLRLSCAASGSTFSVYAMGWYRQAPGKERELVADITRGGSTYADSVTGRFTISRDNAKNTVYLQMNSLKPEDTAVDYCARAEVTPYPLYWSTREYDYWGQGTQVTVSS”, the “polyreactivity (PSR sort gate)” value is reported as “low polyreactivity”. As for “QVQLVESRGGLVQAGGSLRLSCAASGSTFYAYAMGWYRQAPGKERDLVAAISSSGGSTYYADSVKGRFTISRDNAKNTVYLQMNSLKTEDTAVYYCAAYDSVQKYWILGFDYWGQGTQVTVSS”, the “polyreactivity (PSR sort gate)” value is given as “low polyreactivity”.

Take “QVQLVESRGGLVQAGGSLRLSCAASGSTILQYAMGWYRQAPGNERELVAAIRFSTGTTYYADSVKGRFTISRDTANNTVYLQMNSLKPEDTAVYYCAALARTRGRKYGYWGHGTQVTVSS”: the “polyreactivity (PSR sort gate)” value was “high polyreactivity”. In the case of “QVQLVESRGGLVQAGGSLRLSCAASGSTSRTYAMGWYRQAPGKEMELVAAISSSGGRTYYADSVKGRFTISRDNAKNTVYLLMNSLKPEDTAVYYCNARTYSYRGYNYWGQGTQVTVSS”, the “polyreactivity (PSR sort gate)” value is reported as “high polyreactivity”. In the case of “QVQLVESRGGLVQAGGSLRLSCSASGLTIWRYAMGWYRHEPGKEWEFVATISQNGGRTYYADSVKGRFTISRDNAKNTVYLQMNSLKPEDTAVYYCAADDWRWGYDYWGQGTQVTVSS”, the “polyreactivity (PSR sort gate)” value was “high polyreactivity”. On to “QVQLVESRGGLVQAGGSLRLSFAASGSNFGAYAMVWYRQAPGKERELVAGITGSGGTTYYADSVKGRFTISRDNGKNTVYLQMNSLTPEDTAVYDCAKRVWVRYYYWGQGTQVTVSS”, for which the “polyreactivity (PSR sort gate)” value is “high polyreactivity”.

With “QVQLVESRGGLVQAGGSLRLSFPASGSTFYKYAKGWYRQAPGKERELVASISRRAGSTYYADSVKGRFTISRDNAKNTVDVQMTSLKPEDTAVYYCAAVGRYDRVFDYDYWGQGTQVTVSS”, the “polyreactivity (PSR sort gate)” value was “high polyreactivity”. The same measure for “QVQLVESRGGLVQAGRSLRLSCAASGITFYSYAMGWYRQEPGKERELVAAITLTGGTTYYADSVKGRFTISRDNAKNTVYLQMNSLKPEDTAVYYCAAQYWWWSRFEYDSCGQGTQVTVSS”: “low polyreactivity”; for “QVQLVESRGRLVQAGGSLRLSCAASGSIFVGNAMGWYRQAPGKERELVAAISSGGSTYYADSVKGRFTISRDNAKNTVYLQMNSLKPEDTAVYFGAAYYVRRYSSRPKDDYWGQGTQVSVSS”: “low polyreactivity”; for “QVQLVESRGRLVQAGGSLRLSCAASGYTFNHNAMGWYRPAPGKETELVAVITPRAGSTYYADSVKGRFTISRDNAKNTVYLQKNSLKPEDSAVYYCNADGFVRRTLRYDYWVQGTQVTVSS”: “high polyreactivity”. For “QVQLVESRGVLVQAGGSLRLSCAASGFTFYHYAMGWYRQAPGKDRELVAALDNGGSTYADSVKGRFTISRDNATNTVSLQRNSLKPEDTAVYYCAAVYLRYINGFYFWGQGTQVTVSS” the value was “low polyreactivity”; for “QVQLVESRRGLVQAGASLRLSCAASGSTFYGYGMGWYRQAPGKERELVAAITGSGDTTYYADSVKGRFTISRDNAKNTVYLQMNSLKPEDTAVYYCNARWHAEYDYWGQGTQVTVSS”, “low polyreactivity”.
